Test results reported in patent US20120035244A1 (REGENTS OF THE UNIVERSITY OF MICHIGAN, published 2012).

B1: ERG, TMPRSS2:ERG gene fusion product (TMPRSS2 exon 1 fused to ERG1 exon 2) (other, human, UniProt P11308 33-479, looked up)
chain: MTASSSSDYGQTSKMSPRVPQQDWLSQPPARVTIKMECNPSQVNGSRNSPDECSVAKGGKMVGSPDTVGMNYGSYMEEKHMPPPNMTTNERRVIVPADPTLWSTDHVRQWLEWAVKEYGLPDVNILLFQNIDGKELCKMTKDDFQRLTPSYNADILLSHLHYLRETPLPHLTSDDVDKALQNSPRLMHARNTGGAAFIFPNTSVYPEATQRITTRPDLPYEPPRRSAWTGHGHPTPQSKAAQPSPSTVPKTEDQRPQLDPYQILGPTSSRLANPGSGQIQLWQFLLELLSDSSNSSCITWEGTNGEFKMTDPDEVARRWGERKSKPNMNYDKLSRALRYYYDKNIMTKVHGKRYAYKFDFHGIAQALQPHPPESSLYKYPSDLPYMGSYHAHPQKMNFVAPHPPALPVTSSSFFAAPNPYWNSPTGGIYPNTRLPTSHMPSHLGTYY
notes: Untagged fusion product: endogenous in VCaP cells and in ERG fusion-positive human prostate cancer tissues; no tag stated; also called TMPRSS-ERG gene fusion product; endogenous gene fusion product

Experiments:
[1] = target: ATR (human, UniProt Q13535 1-2644); assay: ERG immunoprecipitation from VCaP cells, Western blot (FIG. 8b)
[2] = target: B1; assay: ERG immunoprecipitation from VCaP cells, Western blot (FIG. 1b)

Sequence of ATR (Q13535 whole entry): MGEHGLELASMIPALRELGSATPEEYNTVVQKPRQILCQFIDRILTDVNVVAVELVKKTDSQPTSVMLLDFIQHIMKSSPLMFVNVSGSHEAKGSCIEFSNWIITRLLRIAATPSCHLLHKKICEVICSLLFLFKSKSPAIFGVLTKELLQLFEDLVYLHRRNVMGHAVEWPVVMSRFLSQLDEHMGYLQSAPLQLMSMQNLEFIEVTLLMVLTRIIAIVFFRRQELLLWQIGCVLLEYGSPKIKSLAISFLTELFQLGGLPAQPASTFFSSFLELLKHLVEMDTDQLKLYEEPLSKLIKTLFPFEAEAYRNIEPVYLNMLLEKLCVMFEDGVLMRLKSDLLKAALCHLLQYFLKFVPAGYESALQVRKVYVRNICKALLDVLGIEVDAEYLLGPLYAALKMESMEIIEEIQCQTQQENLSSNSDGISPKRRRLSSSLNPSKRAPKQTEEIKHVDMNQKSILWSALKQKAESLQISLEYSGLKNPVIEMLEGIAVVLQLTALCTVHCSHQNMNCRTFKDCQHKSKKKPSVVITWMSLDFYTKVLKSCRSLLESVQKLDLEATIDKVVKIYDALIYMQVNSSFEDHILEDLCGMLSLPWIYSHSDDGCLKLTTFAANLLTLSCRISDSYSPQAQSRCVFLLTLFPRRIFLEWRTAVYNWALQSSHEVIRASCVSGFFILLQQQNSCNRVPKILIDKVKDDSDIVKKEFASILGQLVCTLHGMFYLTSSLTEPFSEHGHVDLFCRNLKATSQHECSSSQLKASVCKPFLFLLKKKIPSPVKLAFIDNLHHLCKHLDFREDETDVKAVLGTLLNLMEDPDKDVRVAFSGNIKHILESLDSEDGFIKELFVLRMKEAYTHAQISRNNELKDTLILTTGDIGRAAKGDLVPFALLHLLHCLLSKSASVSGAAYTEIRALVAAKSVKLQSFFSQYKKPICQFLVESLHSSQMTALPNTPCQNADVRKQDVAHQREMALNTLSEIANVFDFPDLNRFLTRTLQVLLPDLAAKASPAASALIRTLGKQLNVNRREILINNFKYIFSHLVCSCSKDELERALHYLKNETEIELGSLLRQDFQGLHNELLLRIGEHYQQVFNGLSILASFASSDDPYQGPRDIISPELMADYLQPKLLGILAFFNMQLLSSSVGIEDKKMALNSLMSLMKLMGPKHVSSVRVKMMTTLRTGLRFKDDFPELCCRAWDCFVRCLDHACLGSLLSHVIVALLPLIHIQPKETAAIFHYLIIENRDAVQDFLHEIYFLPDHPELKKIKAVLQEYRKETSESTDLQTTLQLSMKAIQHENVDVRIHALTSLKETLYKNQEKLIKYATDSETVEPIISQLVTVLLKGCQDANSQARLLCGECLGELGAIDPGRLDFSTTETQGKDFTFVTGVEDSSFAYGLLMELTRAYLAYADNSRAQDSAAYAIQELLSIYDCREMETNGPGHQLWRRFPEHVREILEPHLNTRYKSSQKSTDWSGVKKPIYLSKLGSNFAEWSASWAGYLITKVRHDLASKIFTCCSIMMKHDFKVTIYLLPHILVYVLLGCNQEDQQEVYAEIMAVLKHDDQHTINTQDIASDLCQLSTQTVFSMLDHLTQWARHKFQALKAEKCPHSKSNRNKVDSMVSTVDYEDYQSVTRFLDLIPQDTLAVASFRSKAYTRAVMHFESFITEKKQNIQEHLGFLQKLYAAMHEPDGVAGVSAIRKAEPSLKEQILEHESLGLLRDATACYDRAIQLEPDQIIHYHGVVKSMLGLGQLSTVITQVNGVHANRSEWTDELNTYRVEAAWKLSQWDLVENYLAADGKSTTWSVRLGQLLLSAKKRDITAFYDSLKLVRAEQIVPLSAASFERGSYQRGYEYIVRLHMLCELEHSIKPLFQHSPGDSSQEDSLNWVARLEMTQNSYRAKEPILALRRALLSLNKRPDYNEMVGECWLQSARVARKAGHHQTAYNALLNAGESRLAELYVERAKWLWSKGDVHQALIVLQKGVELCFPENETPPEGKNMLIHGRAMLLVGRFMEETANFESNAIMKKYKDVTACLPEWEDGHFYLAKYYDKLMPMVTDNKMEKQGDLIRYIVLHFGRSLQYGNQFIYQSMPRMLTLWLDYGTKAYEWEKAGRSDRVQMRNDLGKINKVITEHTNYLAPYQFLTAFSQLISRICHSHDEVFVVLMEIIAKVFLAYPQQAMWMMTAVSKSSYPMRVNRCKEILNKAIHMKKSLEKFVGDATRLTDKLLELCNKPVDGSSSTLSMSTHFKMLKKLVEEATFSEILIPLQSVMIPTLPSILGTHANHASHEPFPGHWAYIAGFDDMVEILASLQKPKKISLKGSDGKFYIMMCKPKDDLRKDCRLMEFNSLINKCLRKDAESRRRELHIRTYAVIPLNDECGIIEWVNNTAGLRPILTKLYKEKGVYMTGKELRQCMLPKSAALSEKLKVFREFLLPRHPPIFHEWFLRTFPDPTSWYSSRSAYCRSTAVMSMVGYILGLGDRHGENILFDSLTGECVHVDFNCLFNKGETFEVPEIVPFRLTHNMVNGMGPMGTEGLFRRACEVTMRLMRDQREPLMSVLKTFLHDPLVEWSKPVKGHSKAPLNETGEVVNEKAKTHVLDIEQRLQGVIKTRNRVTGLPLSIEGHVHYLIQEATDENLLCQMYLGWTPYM

Row | binding result [1] | binding result [2] | Binder
1 | no binding | – | B1
2 | – | no binding | XRCC4 (other, human, UniProt Q13426 1-336, looked up) MERKISRIHLVSEPSITHFLQVSWEKTLESGFVITLTDGHSAWTGTVSESEISQEADDMAMEKGKYVGELRKALLSGAGPADVYTFNFSKESCYFFFEKNLKDVSFRLGSFNLEKVENPAEVIRELICYCLDTIAENQAKNEHLQKENERLLRDWNDVQGRFEKCVSAKEALETDLYKRFILVLNEKKTKIRSLHNKLLNAAQEREKDIKQEGETAICSEMTADRDPVYDESTDEESENQTDLSGLASAAVSKDDSIISSLDVTDIAPSRKRRQRMQRNLGTEPKMAPQENQLQEKENSRPDSSLPETSKKEHISAENMSLETLRNSSPEDLFDEI
